The results in this text go back to article PMC2891263 (Biochemistry, 2010).

The target in data set [1] is rhodamine-labeled MetJ (MetJ-A1C-rhodamine) (E. coli) (UniProt P0A8U6). As to the kind of experiment: AUC.
Data set [2] concerns the molecule itself. Kind of data set: AUC.

For “rhodamine-labeled MetJ (MetJ-A1C-rhodamine) (from UniProt P0A8U6 1-105) (natural protein)”, the stoichiometry N in data set [1] was determined as 2.

B1: unlabeled MetJ (methionine repressor protein) (natural protein, E. coli, UniProt P0A8U6 1-105, looked up)
chain: MAEWSGEYISPYAEHGKKSEQVKKITVSIPLKVLKILTDERTRRQVNNLRHATNSELLCEAFLHAFTGQPLPDDADLRKERSDEIPEAAKEIMREMGINPETWEY
With B1, in data set [2], the “stoichiometry N” value amounted to 2.
